In the supplement of paper PMC7125110:
± gives the standard error. Fewer inactive variants are shown than the library holds.

B1: glmS ribozyme (parent)
chain: AUAAAAGCGCCAGAACUACAGAAAUGUAGUUGACGAGGAGGAGGUUUAUCGAAUUUUCGGCGGAUGCCUCCAAA

Variants of: B1
Assay: self-cleavage kobs at 2500 uM GlcN6P; higher = faster cleavage; RNA array
Settings: with glucosamine-6-phosphate
Procedure, shortened: (§1)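 Tiles of sequenced MiSeq chips were imaged over ~14 h at 37 °C. On them, barcoded ribozyme variants had been transcribed in situ by E. coli RNA polymerase and were tracked via a hybridised Cy3 probe while glucosamine-6-phosphate (40 μM to 10 mM) in HEPES/KCl/Mg(OAc)2 buffer flowed in. Per-tile medians, normalised to baseline and to non-cleaving reference variants, were fit to one- or two-exponential decays for kobs, and weighted Michaelis–Menten fits gave kcat and KM.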
With G37C U45G U46G G60C A64C the “self-cleavage kobs at 2500 uM GlcN6P” value was < 1e-05 s⁻¹.
A39U A48G C71U was tested, and the “self-cleavage kobs at 2500 uM GlcN6P” value was 4.36e-05 ± 1.5e-05 s⁻¹.
For G37A U49C A53U, the “self-cleavage kobs at 2500 uM GlcN6P” value was < 1e-05 s⁻¹.
In the case of A36G C61G C67G U69G C71A, the “self-cleavage kobs at 2500 uM GlcN6P” value is reported as < 1e-05 s⁻¹.
With A36G G40U U45C C67U the “self-cleavage kobs at 2500 uM GlcN6P” value was < 1e-05 s⁻¹.
For G37A G38C A42C, the “self-cleavage kobs at 2500 uM GlcN6P” value was < 1e-05 s⁻¹.
For U31G A39U U55G C71U, the “self-cleavage kobs at 2500 uM GlcN6P” value was 0.0043 ± 0.00067 s⁻¹.
With A33C C50G the “self-cleavage kobs at 2500 uM GlcN6P” value was 0.000218 ± 9.9e-05 s⁻¹.
With A36C G43C G51C C61A C71U the “self-cleavage kobs at 2500 uM GlcN6P” value was < 1e-05 s⁻¹.
In the case of A39U A64C C70G, the “self-cleavage kobs at 2500 uM GlcN6P” value is reported as < 1e-05 s⁻¹.
With G37A C68A C70U the “self-cleavage kobs at 2500 uM GlcN6P” value was < 1e-05 s⁻¹.
With G37A C68A C70G the “self-cleavage kobs at 2500 uM GlcN6P” value was < 1e-05 s⁻¹.
In the case of A36C A42U G63C, the “self-cleavage kobs at 2500 uM GlcN6P” value is reported as < 1e-05 s⁻¹.
With G38A U54C G63U the “self-cleavage kobs at 2500 uM GlcN6P” value was < 1e-05 s⁻¹.
With C34U U45G C70A the “self-cleavage kobs at 2500 uM GlcN6P” value was < 1e-05 s⁻¹.
In the case of G40U C50A U55C, the “self-cleavage kobs at 2500 uM GlcN6P” value is reported as < 1e-05 s⁻¹.
With A36U G38A U47C the “self-cleavage kobs at 2500 uM GlcN6P” value was < 1e-05 s⁻¹.
For G32U A42U C68A, the “self-cleavage kobs at 2500 uM GlcN6P” value was < 1e-05 s⁻¹.
With G43A G66C C71A the “self-cleavage kobs at 2500 uM GlcN6P” value was < 1e-05 s⁻¹.
For U30C G41C U45G, the “self-cleavage kobs at 2500 uM GlcN6P” value was < 1e-05 s⁻¹.
For G40C G43A A48U A64C U69A, the “self-cleavage kobs at 2500 uM GlcN6P” value was < 1e-05 s⁻¹.
In the case of G32U U55A C70U, the “self-cleavage kobs at 2500 uM GlcN6P” value is reported as 0.000404 ± 8e-05 s⁻¹.
In the case of U31A A52G C70G, the “self-cleavage kobs at 2500 uM GlcN6P” value is reported as 5.02e-05 ± 1.1e-05 s⁻¹.
In the case of U30G U57A G60U, the “self-cleavage kobs at 2500 uM GlcN6P” value is reported as < 1e-05 s⁻¹.
With A39U A52C C67G U69G the “self-cleavage kobs at 2500 uM GlcN6P” value was < 1e-05 s⁻¹.
With G37A A53U G66U the “self-cleavage kobs at 2500 uM GlcN6P” value was 8.93e-05 ± 3.4e-05 s⁻¹.
For G35A A52U U54A C61U C67G, the “self-cleavage kobs at 2500 uM GlcN6P” value was < 1e-05 s⁻¹.
With C34G A42C G63C U65G the “self-cleavage kobs at 2500 uM GlcN6P” value was < 1e-05 s⁻¹.
G37U G40U U55C was tested, and the “self-cleavage kobs at 2500 uM GlcN6P” value was < 1e-05 s⁻¹.
G38A A53G G63U was tested, and the “self-cleavage kobs at 2500 uM GlcN6P” value was < 1e-05 s⁻¹.
For G37A A39C G63U, the “self-cleavage kobs at 2500 uM GlcN6P” value was < 1e-05 s⁻¹.
For A36U G43C A53C C71G, the “self-cleavage kobs at 2500 uM GlcN6P” value was < 1e-05 s⁻¹.
With G35U G40U U49G the “self-cleavage kobs at 2500 uM GlcN6P” value was < 1e-05 s⁻¹.
For G40U G51U G59A, the “self-cleavage kobs at 2500 uM GlcN6P” value was < 1e-05 s⁻¹.
For U31C G35U A48U U49G U57C, the “self-cleavage kobs at 2500 uM GlcN6P” value was < 1e-05 s⁻¹.
For G35U U47A C61A, the “self-cleavage kobs at 2500 uM GlcN6P” value was < 1e-05 s⁻¹.
With G32C G37U G40U U55G the “self-cleavage kobs at 2500 uM GlcN6P” value was < 1e-05 s⁻¹.
With G32U G63C C71G the “self-cleavage kobs at 2500 uM GlcN6P” value was 6.45e-05 ± 3.2e-05 s⁻¹.
With G37C U57C C58G the “self-cleavage kobs at 2500 uM GlcN6P” value was < 1e-05 s⁻¹.
In the case of G40C G43U U56A, the “self-cleavage kobs at 2500 uM GlcN6P” value is reported as < 1e-05 s⁻¹.
A42U C50G G51C U69G C71G was tested, and the “self-cleavage kobs at 2500 uM GlcN6P” value was < 1e-05 s⁻¹.
In the case of A36U A42G U49G U56C G66U C71U, the “self-cleavage kobs at 2500 uM GlcN6P” value is reported as < 1e-05 s⁻¹.
For A42G G51C G62A, the “self-cleavage kobs at 2500 uM GlcN6P” value was < 1e-05 s⁻¹.
In the case of G38A C50G U57C, the “self-cleavage kobs at 2500 uM GlcN6P” value is reported as 0.000163 ± 6.6e-05 s⁻¹.
With G38A A42C U56G the “self-cleavage kobs at 2500 uM GlcN6P” value was < 1e-05 s⁻¹.
A42G G44A G51U was tested, and the “self-cleavage kobs at 2500 uM GlcN6P” value was < 1e-05 s⁻¹.
A36U G38C U47G was tested, and the “self-cleavage kobs at 2500 uM GlcN6P” value was < 1e-05 s⁻¹.
G35A G37U G51C was tested, and the “self-cleavage kobs at 2500 uM GlcN6P” value was < 1e-05 s⁻¹.
A36G A48G U69C was tested, and the “self-cleavage kobs at 2500 uM GlcN6P” value was < 1e-05 s⁻¹.
A42U G59U C70G was tested, and the “self-cleavage kobs at 2500 uM GlcN6P” value was < 1e-05 s⁻¹.
In the case of A39C U47C U65A, the “self-cleavage kobs at 2500 uM GlcN6P” value is reported as 9.45e-05 ± 3.8e-05 s⁻¹.
With U31G G35C G41A A53U G63A the “self-cleavage kobs at 2500 uM GlcN6P” value was < 1e-05 s⁻¹.
With C34A A48G U57C the “self-cleavage kobs at 2500 uM GlcN6P” value was < 1e-05 s⁻¹.
In the case of C34U G44U U49C G59A C61A, the “self-cleavage kobs at 2500 uM GlcN6P” value is reported as < 1e-05 s⁻¹.
With A36U G40U G62C G66C the “self-cleavage kobs at 2500 uM GlcN6P” value was < 1e-05 s⁻¹.
In the case of A39U G44U A53U, the “self-cleavage kobs at 2500 uM GlcN6P” value is reported as 0.000583 ± 0.00016 s⁻¹.
For G37U A48C A53G, the “self-cleavage kobs at 2500 uM GlcN6P” value was < 1e-05 s⁻¹.
G38A C58U C71U was tested, and the “self-cleavage kobs at 2500 uM GlcN6P” value was < 1e-05 s⁻¹.
In the case of U31C U45A U57C, the “self-cleavage kobs at 2500 uM GlcN6P” value is reported as 4.12e-05 ± 1.4e-05 s⁻¹.
For U30G G35A G51A C70A, the “self-cleavage kobs at 2500 uM GlcN6P” value was < 1e-05 s⁻¹.
G37U G41U U47G G63U was tested, and the “self-cleavage kobs at 2500 uM GlcN6P” value was < 1e-05 s⁻¹.
With G40U U57A C61G the “self-cleavage kobs at 2500 uM GlcN6P” value was < 1e-05 s⁻¹.
With G37U A39U G43U C67G the “self-cleavage kobs at 2500 uM GlcN6P” value was < 1e-05 s⁻¹.
C34U C68U was tested, and the “self-cleavage kobs at 2500 uM GlcN6P” value was < 1e-05 s⁻¹.
In the case of U30G U55C U65A C71U, the “self-cleavage kobs at 2500 uM GlcN6P” value is reported as 8.23e-05 ± 1.7e-05 s⁻¹.
In the case of A33C A36U G37A U47C, the “self-cleavage kobs at 2500 uM GlcN6P” value is reported as < 1e-05 s⁻¹.
In the case of G41A U47C G51C, the “self-cleavage kobs at 2500 uM GlcN6P” value is reported as < 1e-05 s⁻¹.
In the case of A33G U47C U54C G62A, the “self-cleavage kobs at 2500 uM GlcN6P” value is reported as < 1e-05 s⁻¹.
G37U G38U A39C was tested, and the “self-cleavage kobs at 2500 uM GlcN6P” value was < 1e-05 s⁻¹.
In the case of G40U A42U G43A C71A, the “self-cleavage kobs at 2500 uM GlcN6P” value is reported as < 1e-05 s⁻¹.
With U31G A53U C70A the “self-cleavage kobs at 2500 uM GlcN6P” value was 0.000207 ± 6.4e-05 s⁻¹.
C34A A39U C50G C67G was tested, and the “self-cleavage kobs at 2500 uM GlcN6P” value was 0.000353 ± 6.7e-05 s⁻¹.
C34U U47C C61U was tested, and the “self-cleavage kobs at 2500 uM GlcN6P” value was < 1e-05 s⁻¹.
In the case of A42C C58A G60U, the “self-cleavage kobs at 2500 uM GlcN6P” value is reported as < 1e-05 s⁻¹.
With A42U U45G A53C the “self-cleavage kobs at 2500 uM GlcN6P” value was 0.000111 ± 2.6e-05 s⁻¹.
For G40U U54G C70G C71A, the “self-cleavage kobs at 2500 uM GlcN6P” value was 6.39e-05 ± 1.8e-05 s⁻¹.
For G32A C68G C70G, the “self-cleavage kobs at 2500 uM GlcN6P” value was < 1e-05 s⁻¹.
In the case of U31G A39G U57A A64G, the “self-cleavage kobs at 2500 uM GlcN6P” value is reported as 5.58e-05 ± 2e-05 s⁻¹.
A42U G59U C61G A64U C68A C70G was tested, and the “self-cleavage kobs at 2500 uM GlcN6P” value was < 1e-05 s⁻¹.
In the case of C34A A39U C50A A53G C68U, the “self-cleavage kobs at 2500 uM GlcN6P” value is reported as < 1e-05 s⁻¹.
A36U U45G C61G was tested, and the “self-cleavage kobs at 2500 uM GlcN6P” value was < 1e-05 s⁻¹.
In the case of U31C C34G G35U C68G, the “self-cleavage kobs at 2500 uM GlcN6P” value is reported as 0.000147 ± 6.7e-05 s⁻¹.

Variants of: B1
Assay: self-cleavage kobs at 10000 uM GlcN6P; higher = faster cleavage; RNA array
Settings: with glucosamine-6-phosphate
Procedure, shortened: as §1
C34U U45G C70A was tested, and the “self-cleavage kobs at 10000 uM GlcN6P” value was < 1e-05 s⁻¹.
For A36U G38A U47C, the “self-cleavage kobs at 10000 uM GlcN6P” value was < 1e-05 s⁻¹.
In the case of U31A A52G C70G, the “self-cleavage kobs at 10000 uM GlcN6P” value is reported as 6.16e-05 ± 1.8e-05 s⁻¹.
In the case of A36U A42G U49G U56C G66U C71U, the “self-cleavage kobs at 10000 uM GlcN6P” value is reported as < 1e-05 s⁻¹.
For A42G G44A G51U, the “self-cleavage kobs at 10000 uM GlcN6P” value was < 1e-05 s⁻¹.
In the case of U31C C34G G35U C68G, the “self-cleavage kobs at 10000 uM GlcN6P” value is reported as 0.000118 ± 4.1e-05 s⁻¹.
